The values that follow come from paper PMC10779317.

What is called IC50 is the concentration that inhibits the measured activity by half. Read a high IC50 as lower potency.

This series has as its target Dnmt3a-CD (mouse (murine)) (UniProt O88508). The series can be described thus: competition (inhibition of 30Uf/30Df methylation). As to conditions: 20 mM HEPES-NaOH pH 7.5, 100 mM KCl, 1 mM EDTA, 1 mM DTT, 100 uM AdoHcy, 10 nM DNA (60 nM for PWWP); FP temperature not stated; methylation competition at 37 C ….

Sequence of Dnmt3a-CD (mouse (murine)) (O88508 630-908): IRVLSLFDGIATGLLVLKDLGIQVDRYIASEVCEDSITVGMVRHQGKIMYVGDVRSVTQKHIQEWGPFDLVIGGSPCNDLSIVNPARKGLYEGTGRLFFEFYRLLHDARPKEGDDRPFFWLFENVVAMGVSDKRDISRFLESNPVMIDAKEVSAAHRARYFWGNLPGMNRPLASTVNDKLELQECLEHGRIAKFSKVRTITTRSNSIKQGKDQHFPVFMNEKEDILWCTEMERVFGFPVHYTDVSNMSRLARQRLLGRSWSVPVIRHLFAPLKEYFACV

In the case of TGGGGAGGGTGAGGAGTGTGGGGAAGG [27G4-mut], the IC50 came out at 1100 nM.
